Square brackets hold non-standard residues; d marks the D form. Primed or numbered codes have the meaning given here. Phe(4-CF3) = N[C@@H](Cc1ccc(C(F)(F)F)cc1)C(=O)O; dPro(cis-4-NH2) = N[C@H]1CN[C@@H](C(=O)O)C1; Pro(3S-OH) = O=C(O)[C@H]1NCC[C@@H]1O; hArg = N=C(N)NCCCC[C@H](N)C(=O)O; Tic = O=C(O)[C@@H]1Cc2ccccc2CN1; dTic = O=C(O)[C@H]1Cc2ccccc2CN1; aThr = C[C@H](O)[C@H](N)C(=O)O; Orn(A41) = not defined here; Orn(A56) = not defined here; Orn(Ar2) = not defined here; Orn(Ar4) = not defined here; Orn(Ar7) = not defined here; hSer = N[C@@H](CCO)C(=O)O; Orn = NCCC[C@H](N)C(=O)O; dPip′ = not defined here; A56 = not defined here; Ar7 = not defined here; Tiq = not defined here
Target: chemokine receptor CXCR7 (UniProt P25106 1-362, limits assumed)
Sequence (P25106 whole entry): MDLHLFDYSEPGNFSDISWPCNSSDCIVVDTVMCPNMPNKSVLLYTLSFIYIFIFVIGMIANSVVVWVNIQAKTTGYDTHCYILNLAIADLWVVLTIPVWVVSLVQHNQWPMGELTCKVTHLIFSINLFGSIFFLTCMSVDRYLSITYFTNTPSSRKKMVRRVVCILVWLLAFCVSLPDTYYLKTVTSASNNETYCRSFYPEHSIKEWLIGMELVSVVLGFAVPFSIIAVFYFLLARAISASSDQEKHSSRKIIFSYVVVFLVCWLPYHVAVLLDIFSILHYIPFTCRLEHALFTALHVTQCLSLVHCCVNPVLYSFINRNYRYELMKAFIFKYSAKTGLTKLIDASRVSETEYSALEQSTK
Experiment: cell-based or functional assay

B1: cyclo(-Ile-^DArg-Arg-Trp-^DPro-hSer-) (peptide)
peptide: cyclo(I[dR]RW[dP][hSer])
SMILES: CC[C@H](C)[C@@H]1NC(=O)[C@H](CCO)NC(=O)[C@H]2CCCN2C(=O)[C@H](Cc2c[nH]c3ccccc23)NC(=O)[C@H](CCCNC(=N)N)NC(=O)[C@@H](CCCNC(=N)N)NC1=O
β-Arrestin EC50: 347 nM

cyclo(I[dR][Orn(A56)]W[dP]T) (reading uncertain; also: printed as cyclo(-Ile-^DArg-Orn(A56)-Trp-^DPro-Thr-)) [cyclo(-Ile-^DArg-Orn(A56)-Trp-^DPro-Thr-)]
β-Arrestin EC50: 3.2 nM

cyclo([Ala(1Pyraz)][dF]WR[dPro(cis-4-NH2)][Tic]) [cyclo(-Ala(1Pyraz)-^DPhe-Trp-Arg-^DPro((4R)NH2)-Tic-)]
β-Arrestin EC50: 29.9 nM

B2: cyclo(-Ile-^DArg-Orn-Trp-^DPro-Thr-) (peptide)
peptide: cyclo(I[dR][Orn]W[dP]T)
SMILES: CC[C@H](C)[C@@H]1NC(=O)[C@H]([C@@H](C)O)NC(=O)[C@H]2CCCN2C(=O)[C@H](Cc2c[nH]c3ccccc23)NC(=O)[C@H](CCCN)NC(=O)[C@@H](CCCNC(=N)N)NC1=O
β-Arrestin EC50: 816 nM

B3: cyclo(-Ile-^DArg-Arg-Phe(4CF3)-^DPro-Thr-) (peptide)
peptide: cyclo(I[dR]R[Phe(4-CF3)][dP]T)
SMILES: CC[C@H](C)[C@@H]1NC(=O)[C@H]([C@@H](C)O)NC(=O)[C@H]2CCCN2C(=O)[C@H](Cc2ccc(C(F)(F)F)cc2)NC(=O)[C@H](CCCNC(=N)N)NC(=O)[C@@H](CCCNC(=N)N)NC1=O
β-Arrestin EC50: 4.5 nM

B4: cyclo(-Ile-^DArg-Arg-Trp-^DTic-Thr-) (peptide)
peptide: cyclo(I[dR]RW[dTic]T)
SMILES: CC[C@H](C)[C@@H]1NC(=O)[C@H]([C@@H](C)O)NC(=O)[C@H]2Cc3ccccc3CN2C(=O)[C@H](Cc2c[nH]c3ccccc23)NC(=O)[C@H](CCCNC(=N)N)NC(=O)[C@@H](CCCNC(=N)N)NC1=O
β-Arrestin EC50: 14.2 nM

B5: cyclo(-Orn(Ar2)-^DPhe-Trp-Arg-^DPro((4R)NH2)-Tic-) (peptide)
peptide: cyclo([Orn(Ar2)][dF]WR[dPro(cis-4-NH2)][Tic])
modifications: reading uncertain; also: printed as cyclo(-Orn(Ar2)-^DPhe-Trp-Arg-^DPro((4R)NH2)-Tic-)
β-Arrestin EC50: 209 nM

cyclo(I[dR][Orn(Ar2)]W[dP]T) (reading uncertain; also: printed as cyclo(-Ile-^DArg-Orn(Ar2)-Trp-^DPro-Thr-)) [cyclo(-Ile-^DArg-Orn(Ar2)-Trp-^DPro-Thr-)]
β-Arrestin EC50: 453 nM

cyclo([Ala(Tet)][dF]WR[dPro(cis-4-NH2)][Tic]) [cyclo(-Ala(Tet)-^DPhe-Trp-Arg-^DPro((4R)NH2)-Tic-)]
β-Arrestin EC50: 28.1 nM

cyclo(I[dR][Orn(Ar7)]W[dP]T) (reading uncertain; also: printed as cyclo(-Ile-^DArg-Orn(Ar7)-Trp-^DPro-Thr-)) [cyclo(-Ile-^DArg-Orn(Ar7)-Trp-^DPro-Thr-)]
β-Arrestin EC50: 336 nM

B6: cyclo(-Trp-^DPhe-Trp-Orn(A56)-^DPro((4R)NH2)-Tiq-) (peptide)
peptide: cyclo(W[dF]W[Orn](A56)[dPro(cis-4-NH2)][Tiq])
modifications: reading uncertain; also: printed as cyclo(-Trp-^DPhe-Trp-Orn(A56)-^DPro((4R)NH2)-Tiq-)
β-Arrestin EC50: 46.9 nM

B7: cyclo(-Trp-^DPhe-Trp-Orn(Ar7)-^DPro((4R)NH2)-Tic-) (peptide)
peptide: cyclo(W[dF]W[Orn](Ar7)[dPro(cis-4-NH2)][Tic])
modifications: reading uncertain; also: printed as cyclo(-Trp-^DPhe-Trp-Orn(Ar7)-^DPro((4R)NH2)-Tic-)
β-Arrestin EC50: 145 nM

B8: cyclo(-Ile-^DArg-hArg-Trp-^DPro-Thr-) (peptide)
peptide: cyclo(I[dR][hArg]W[dP]T)
SMILES: CC[C@H](C)[C@@H]1NC(=O)[C@H]([C@@H](C)O)NC(=O)[C@H]2CCCN2C(=O)[C@H](Cc2c[nH]c3ccccc23)NC(=O)[C@H](CCCCNC(=N)N)NC(=O)[C@@H](CCCNC(=N)N)NC1=O
β-Arrestin EC50: 11 nM

cyclo(I[dR][Orn(A41)]W[dP]T) (reading uncertain; also: printed as cyclo(-Ile-^DArg-Orn(A41)-Trp-^DPro-Thr-)) [cyclo(-Ile-^DArg-Orn(A41)-Trp-^DPro-Thr-)]
β-Arrestin EC50: 518 nM

B9: cyclo(-Trp-^DPhe-Trp-Orn(A56)-^DPip-Pro((3S)OH)-) (peptide)
peptide: cyclo(W[dF]W[Orn](A56)[dPip′][Pro(3S-OH)])
modifications: reading uncertain; also: printed as cyclo(-Trp-^DPhe-Trp-Orn(A56)-^DPip-Pro((3S)OH)-)
β-Arrestin EC50: 14 nM

B10: cyclo(-Orn(A56)-^DPhe-Trp-Arg-^DPro((4R)NH2)-Tic-) (peptide)
peptide: cyclo([Orn(A56)][dF]WR[dPro(cis-4-NH2)][Tic])
modifications: reading uncertain; also: printed as cyclo(-Orn(A56)-^DPhe-Trp-Arg-^DPro((4R)NH2)-Tic-)
β-Arrestin EC50: 181 nM

B11: cyclo(-Ile-^DThr-Arg-Trp-^DPro-Thr-) (peptide)
peptide: cyclo(I[dT]RW[dP]T)
SMILES: CC[C@H](C)[C@@H]1NC(=O)[C@H]([C@@H](C)O)NC(=O)[C@H]2CCCN2C(=O)[C@H](Cc2c[nH]c3ccccc23)NC(=O)[C@H](CCCNC(=N)N)NC(=O)[C@@H]([C@H](C)O)NC1=O
β-Arrestin EC50: 53.2 nM

cyclo(I[dR][Orn(Ar4)]W[dP]T) (reading uncertain; also: printed as cyclo(-Ile-^DArg-Orn(Ar4)-Trp-^DPro-Thr-)) [cyclo(-Ile-^DArg-Orn(Ar4)-Trp-^DPro-Thr-)]
β-Arrestin EC50: 4.6 nM

B12: cyclo(-Ile-^DArg-Arg-Trp-^DPro-alloThr-) (peptide)
peptide: cyclo(I[dR]RW[dP][aThr])
SMILES: CC[C@H](C)[C@@H]1NC(=O)[C@H]([C@H](C)O)NC(=O)[C@H]2CCCN2C(=O)[C@H](Cc2c[nH]c3ccccc23)NC(=O)[C@H](CCCNC(=N)N)NC(=O)[C@@H](CCCNC(=N)N)NC1=O
β-Arrestin EC50: 292 nM

B13: cyclo(-Trp-^DPhe-Trp-Orn(A56)-^DPro((4R)NH2)-Tic-) (peptide)
peptide: cyclo(W[dF]W[Orn](A56)[dPro(cis-4-NH2)][Tic])
modifications: reading uncertain; also: printed as cyclo(-Trp-^DPhe-Trp-Orn(A56)-^DPro((4R)NH2)-Tic-)
β-Arrestin EC50: 33.4 nM

Source: US20130225506A1 (POLYPHOR, published 2013)
